Data on 3 proteins can be found in publication PMC8162069.

The Km is the substrate concentration at which the rate is half of its maximum. The term kcat denotes the maximal rate divided by the concentration of active sites. As usually defined, the kcat/Km is the turnover number divided by the Michaelis constant.

Substrate in the data set: O=C[C@H](O)COP(=O)(O)O
Put plainly: purified protein. In kind it is biochemical, Trichoderma virens. As to conditions: without HA.

Residue numbers refer to the chain shown, from its start. In names and notes the source's numbering stands.

B1: HepG (Trichoderma virens Gv29-8; A201L) (protein)
chain: MVPKVGINGFGRIGRVVLRNALETGAVEVVALNDPFIEPHYAEYMFKYDSTHGRFKGDIKVDGKDLVIDGKRIKFYQERDPANIPWKDSGAEYIVESTGVFTTTEKASAHFKGGAKKVIISAPSADAPMYVMGVNEDTYAGANVISNASCTTNCLAPLAKTLNDKFTIVEGLMTAIHAYTASQKTVDGPSSKDWRGGRAALQNLIPSSTGAAKAVGKVIPELAGKVTGMSVRVPTVNVSLVDFTVRFAKDVTYDEVKAAIKEASEGPLKGILAYTEDDIVSTDILTDPHSSTFDAKAGIALNKNFVKVMSWYDNEYGYSRRVVDLIVFVSKKDAGQ
B1: the Km was found to be 0.26 ± 0.05 mM, the kcat worked out at 21.7 ± 3.33 s⁻¹ and the kcat/Km is 83300 M⁻¹ s⁻¹.

B2: HepG (Trichoderma virens Gv29-8) (protein)
chain: B1 chain with L201A
B2: the Km is given as 0.28 ± 0.05 mM, the kcat was 41.7 ± 6.67 s⁻¹ and the kcat/Km is 148000 M⁻¹ s⁻¹.

B3: Tv-GAPDH (Trichoderma virens Gv29-8) (protein)
chain: MAPIKVGINGFGRIGRIVFRNAVEHPDIEVVAVNDPFIETTYAAYMLKYDSSHGLFKGDVEVDGKDLVVNGKKVRFYTERDPANIKWSETGADYIVESTGVFTTTEKAKAHLVGGAKKVIISAPSADAPMYVMGVNENDYNGSADVISNASCTTNCLAPLAKVINDNYGIVEGLMTTVHSYTATQKTVDGPSAKDWRGGRGAAQNIIPSSTGAAKAVGKVIPSLNGKLTGMSIRVPTANVSVVDLTVRLEKGATYAEITETIKKAADGPLKGVLAYTNDDVVSSDMLGNTNSSIFDIKAGISLNDNFVKLVSWYDNEWGYSRRVLDLLAHVAKVDASK
As for B3, the Km is 1.1 ± 0.2 mM, the kcat worked out at 115 ± 21.7 s⁻¹ and the specificity constant (kcat/Km) worked out at 105000 M⁻¹ s⁻¹.
